Measured values: publication PMC5177931

Molecular target: T1, Myc-tagged PDC E1, P08559
T1 chain: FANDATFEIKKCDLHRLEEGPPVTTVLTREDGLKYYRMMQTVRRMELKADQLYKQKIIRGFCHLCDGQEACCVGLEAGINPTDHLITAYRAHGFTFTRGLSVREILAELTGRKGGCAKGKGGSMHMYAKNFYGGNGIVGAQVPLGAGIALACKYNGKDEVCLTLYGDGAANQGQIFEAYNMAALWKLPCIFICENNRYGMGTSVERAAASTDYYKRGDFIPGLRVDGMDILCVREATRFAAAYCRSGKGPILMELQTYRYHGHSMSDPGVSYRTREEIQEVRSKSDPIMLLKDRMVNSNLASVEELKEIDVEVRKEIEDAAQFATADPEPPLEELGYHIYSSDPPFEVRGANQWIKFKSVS
Assay: co-immunoprecipitation (anti-Myc IP, western blot for Flag-STAT3), band intensity printed under lanes
Conditions: chain shown with the change; 293T cells, transient transfection; printed intensities relative to EV lane = 1; parent: 9.5

response: 2.4
B1: Flag-STAT3 WT, P40763 K685R; K707R; K709R (protein)
chain: MAQWNQLQQLDTRYLEQLHQLYSDSFPMELRQFLAPWIESQDWAYAASKESHATLVFHNLLGEIDQQYSRFLQESNVLYQHNLRRIKQFLQSRYLEKPMEIARIVARCLWEESRLLQTAATAAQQGGQANHPTAAVVTEKQQMLEQHLQDVRKRVQDLEQKMKVVENLQDDFDFNYKTLKSQGDMQDLNGNNQSVTRQKMQQLEQMLTALDQMRRSIVSELAGLLSAMEYVQKTLTDEELADWKRRQQIACIGGPPNICLDRLENWITSLAESQLQTRQQIKKLEELQQKVSYKGDPIVQHRPMLEERIVELFRNLMKSAFVVERQPCMPMHPDRPLVIKTGVQFTTKVRLLVKFPELNYQLKIKVCIDKDSGDVAALRGSRKFNILGTNTKVMNMEESNNGSLSAEFKHLTLREQRCGNGGRANCDASLIVTEELHLITFETEVYHQGLKIDLETHSLPVVVISNICQMPNAWASILWYNMLTNNPKNVNFFTKPPIGTWDQVAEVLSWQFSSTTKRGLSIEQLTTLAEKLLGPGVNYSGCQITWAKFCKENMAGKGFSFWVWLDNIIDLVKKYILALWNEGYIMGFISKERERAILSTKPPGTFLLRFSESSKEGGVTFTWVEKDISGKTQIQSVEPYTKQQLNNMSFAEIIMGYKIMDATNILVSPLVYLYPDIPKEEAFGRYCRPESQEHPEADPGSAAPYLRTRFICVTPTTCSNTIDLPMSPRTLDSLMQFGNNGEGAEPSAGGQFESLTFDMELTSECATSPM
